Data published in patent US7410949 (Hoffmann-La Roche, dated 2008).
*1 amine or outer side, *2 acyl side, *3 side chain or, on linkers, in order; H or OH if unused. [ ]: non-standard residue; d: D form. Pqa = N-piperazin-1-yl-4(3H)-quinazolinone-3-acetic acid, O=C(Cn1cnc2ccc(N3CCN([*:1])CC3)cc2c1=O)[*:2]; 2Nal = N[C@@H](Cc1ccc2ccccc2c1)C(=O)O; 3Pal = N[C@@H](Cc1cccnc1)C(=O)O; Nle = CCCC[C@H](N)C(=O)O

B1: H-Ile-Lys-Pqa-Arg-(NMe)His-Tyr-Leu-Asn-Leu-Val-Thr-Arg-Gln-Arg-Tyr-NH2 (peptide)
peptide: IKRHYLNLVTRQRY
modifications: N-methyl His at PYY position 26 (residue 2 of the second part); Pqa moiety between the two parts; C-terminal amide
B2: Ac-Ile-Nle-Pqa-Phe-His-Tyr-Leu-Asn-Leu-Val-Thr-Arg-Gln-Arg-Tyr-NH2 (peptide)
peptide: Ac-I[Nle][Pqa]FHYLNLVTRQRY-NH2
SMILES: CCCC[C@H](NC(=O)[C@@H](NC(C)=O)[C@@H](C)CC)C(=O)N1CCN(c2ccc3ncn(CC(=O)N[C@@H](Cc4ccccc4)C(=O)N[C@@H](Cc4c[nH]cn4)C(=O)N[C@@H](Cc4ccc(O)cc4)C(=O)N[C@@H](CC(C)C)C(=O)N[C@@H](CC(N)=O)C(=O)N[C@@H](CC(C)C)C(=O)N[C@H](C(=O)N[C@H](C(=O)N[C@@H](CCCNC(=N)N)C(=O)N[C@@H](CCC(N)=O)C(=O)N[C@@H](CCCNC(=N)N)C(=O)N[C@@H](Cc4ccc(O)cc4)C(N)=O)[C@@H](C)O)C(C)C)c(=O)c3c2)CC1
B3: Ac-Ile-Nle-Pqa-Arg-His-(2)Nal-Leu-Asn-Leu-Val-Thr-Arg-Gln-Arg-Tyr-NH2 (peptide)
peptide: Ac-I[Nle][Pqa]RH[2Nal]LNLVTRQRY-NH2
SMILES: CCCC[C@H](NC(=O)[C@@H](NC(C)=O)[C@@H](C)CC)C(=O)N1CCN(c2ccc3ncn(CC(=O)N[C@@H](CCCNC(=N)N)C(=O)N[C@@H](Cc4c[nH]cn4)C(=O)N[C@@H](Cc4ccc5ccccc5c4)C(=O)N[C@@H](CC(C)C)C(=O)N[C@@H](CC(N)=O)C(=O)N[C@@H](CC(C)C)C(=O)N[C@H](C(=O)N[C@H](C(=O)N[C@@H](CCCNC(=N)N)C(=O)N[C@@H](CCC(N)=O)C(=O)N[C@@H](CCCNC(=N)N)C(=O)N[C@@H](Cc4ccc(O)cc4)C(N)=O)[C@@H](C)O)C(C)C)c(=O)c3c2)CC1
B4: H-Ile-Lys-Pqa-Arg-His-Tyr-Leu-Asn-(NMe)Leu-Val-Thr-Arg-Gln-Arg-Tyr-NH2 (peptide)
peptide: IKRHYLNLVTRQRY
modifications: N-methyl Leu at PYY position 30 (residue 6 of the second part); Pqa moiety between the two parts; C-terminal amide
B5: H-Ile-Lys-Pqa-Arg-His-Tyr-(D)Leu-Asn-Leu-Val-Thr-Arg-Gln-Arg-Tyr-NH2 (peptide)
peptide: IKRHYLNLVTRQRY
modifications: (D)Leu at PYY position 28 (residue 4 of the second part); Pqa moiety between the two parts; C-terminal amide
B6: H-(D) Ile-Lys-Pqa-Arg-His-Tyr-Leu-Asn-Leu-Val-Thr-Arg-Gln-Arg-Tyr-NH2 (peptide)
peptide: IKRHYLNLVTRQRY
modifications: (D)Ile at PYY position 3 (residue 1 of the first part); Pqa moiety between the two parts; C-terminal amide
B7: H-Ile-Lys-Pqa-Arg-His-(NMe)Tyr-Leu-Asn-Leu-Val-Thr-Arg-Gln-Arg-Tyr-NH2 (peptide)
peptide: IKRHYLNLVTRQRY
modifications: N-methyl Tyr at PYY position 27 (residue 3 of the second part); Pqa moiety between the two parts; C-terminal amide
B8: H-Ile-Lys-Pqa-Arg-His-Tyr-Leu-Asn-Leu-Val-(NMe)Thr-Arg-Gln-Arg-Tyr-NH2 (peptide)
peptide: IKRHYLNLVTRQRY
modifications: N-methyl Thr at PYY position 32 (residue 8 of the second part); Pqa moiety between the two parts; C-terminal amide
B9: H-Ile-Lys-Pqa-Arg-His-Tyr-Leu-Asn-Leu-(NMe)Val-Thr-Arg-Gln-Arg-Tyr-NH2 (peptide)
peptide: IKRHYLNLVTRQRY
modifications: N-methyl Val at PYY position 31 (residue 7 of the second part); Pqa moiety between the two parts; C-terminal amide
B10: H-Ile-Lys-Pqa-Arg-(D)His-Tyr-Leu-Asn-Leu-Val-Thr-Arg-Gln-Arg-Tyr-NH2 (peptide)
peptide: IKRHYLNLVTRQRY
modifications: (D)His at PYY position 26 (residue 2 of the second part); Pqa moiety between the two parts; C-terminal amide
B11: H-Ile-Lys-Pqa-Ala-His-Tyr-Leu-Asn-Leu-Val-Thr-Arg-Gln-Arg-Tyr-NH2 (peptide)
peptide: H-IK[Pqa]AHYLNLVTRQRY-NH2
SMILES: CC[C@H](C)[C@H](N)C(=O)N[C@@H](CCCCN)C(=O)N1CCN(c2ccc3ncn(CC(=O)N[C@@H](C)C(=O)N[C@@H](Cc4c[nH]cn4)C(=O)N[C@@H](Cc4ccc(O)cc4)C(=O)N[C@@H](CC(C)C)C(=O)N[C@@H](CC(N)=O)C(=O)N[C@@H](CC(C)C)C(=O)N[C@H](C(=O)N[C@H](C(=O)N[C@@H](CCCNC(=N)N)C(=O)N[C@@H](CCC(N)=O)C(=O)N[C@@H](CCCNC(=N)N)C(=O)N[C@@H](Cc4ccc(O)cc4)C(N)=O)[C@@H](C)O)C(C)C)c(=O)c3c2)CC1
B12: Ac-Ile-Nle-Pqa-Arg-(3-Pal)-Tyr-Leu-Asn-Leu-Val-Thr-Arg-Gln-Arg-Tyr-NH2 (peptide)
peptide: Ac-I[Nle][Pqa]R[3Pal]YLNLVTRQRY-NH2
SMILES: CCCC[C@H](NC(=O)[C@@H](NC(C)=O)[C@@H](C)CC)C(=O)N1CCN(c2ccc3ncn(CC(=O)N[C@@H](CCCNC(=N)N)C(=O)N[C@@H](Cc4cccnc4)C(=O)N[C@@H](Cc4ccc(O)cc4)C(=O)N[C@@H](CC(C)C)C(=O)N[C@@H](CC(N)=O)C(=O)N[C@@H](CC(C)C)C(=O)N[C@H](C(=O)N[C@H](C(=O)N[C@@H](CCCNC(=N)N)C(=O)N[C@@H](CCC(N)=O)C(=O)N[C@@H](CCCNC(=N)N)C(=O)N[C@@H](Cc4ccc(O)cc4)C(N)=O)[C@@H](C)O)C(C)C)c(=O)c3c2)CC1
B13: H-Ile-Lys-Pqa-(NMe)Arg-His-Tyr-Leu-Asn-Leu-Val-Thr-Arg-Gln-Arg-Tyr-NH2 (peptide)
peptide: IKRHYLNLVTRQRY
modifications: N-methyl Arg at PYY position 25 (residue 1 of the second part); Pqa moiety between the two parts; C-terminal amide
B14: H-NMeIle-Lys-Pqa-Arg-His-Tyr-Leu-Asn-Leu-Val-Thr-Arg-Gln-Arg-Tyr-NH2 (peptide)
peptide: IKRHYLNLVTRQRY
modifications: N-methyl Ile at PYY position 3 (residue 1 of the first part); Pqa moiety between the two parts; C-terminal amide

Legend:
Y4R = assay: cell-based or functional assay
Y1R = assay: cell-based or functional assay
Y1R, sequence (P25929 whole entry): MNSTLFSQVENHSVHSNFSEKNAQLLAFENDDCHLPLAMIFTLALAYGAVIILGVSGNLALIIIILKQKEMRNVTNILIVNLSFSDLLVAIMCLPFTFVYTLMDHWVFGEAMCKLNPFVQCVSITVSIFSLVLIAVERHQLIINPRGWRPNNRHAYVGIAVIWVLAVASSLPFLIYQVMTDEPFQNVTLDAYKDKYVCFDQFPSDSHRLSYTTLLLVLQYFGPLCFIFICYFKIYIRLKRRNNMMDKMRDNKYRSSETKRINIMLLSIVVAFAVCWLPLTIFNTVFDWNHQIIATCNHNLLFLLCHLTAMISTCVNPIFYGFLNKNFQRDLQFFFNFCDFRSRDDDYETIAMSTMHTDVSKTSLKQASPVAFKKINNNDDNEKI

Binder | Y4R EC50(nM) FLIPR (Y4R) [nM] | Y1R EC50(nM) FLIPR (Y1R) [nM]
B1 | > 5000 | 
B2 | > 5000 | > 5000
B3 | > 5000 | 
B4 | > 5000 | > 5000
B5 | > 5000 | 
B6 | > 5000 | > 5000
B7 | > 5000 | > 5000
B8 | > 5000 | > 5000
B9 | > 5000 | > 5000
B10 | > 5000 | 
B11 | > 5000 | 
B12 | > 5000 | 
B13 | > 5000 | 
B14 | > 5000 | 
